Test [1] has as its target CryB, GAL4 binding domain fusion (pGBK-T7-cryB) (Rhodobacter sphaeroides). The test can be described thus: two-hybrid.
Test [2] deals with His-CryB, purified from E. coli (Rhodobacter sphaeroides). Nature of the test: MST.
Test [3] concerns the target CryB, GAL4 binding domain fusion (pGBK-T7-cryB) (Rhodobacter sphaeroides). The test can be described thus: two-hybrid. This is another data set of the same source.

Where two headings read alike, the source gives them in different places.

The Kd is the concentration at which binding is half-saturated. High values mean lower affinity, low ones higher affinity.

As for “SCHIC domain of AppA, GAL4 activation domain fusion (pGAD-T7) (domain or fragment)”, in test [1], the β-galactosidase activity, percent of the SV40 T antigen + p53 control amounted to 8%.

B1: MBP-AppA (full-length AppA tagged with maltose-binding protein) (natural protein)
chain: MQHDLEADVTMTGSDLVSCCYRSLAAPDLTLRDLLDIVETSQAHNARAQLTGALFYSQGVFFQWLEGRPAAVAEVMTHIQRDRRHSNVEILAEEPIAKRRFAGWHMQLSCSEADMRSLGLAESRQIVTVGRSLVADNTNIFSFDRIAAVRRFLSDVCAARTLAPDTPVEADTFALYALTEAQAGRSGRAKAVARLSDLLSTDPLGRLTEVEELLRAHAPTAADFARLFEACAERLTRALAEDRISRMQVTLAYSALQMALRRIHHLPDPQKSVGAVLVAGVPGHKPILEAALAAEMLRAVGWSTSVVHPESVAALAARLKTSRTSTLVVAPSLLEGTEQEADTLRFVSALRARTDLPGLSILVGGRLAQLPPSKLKDSGADAGFAHLALLPAALARVACPANADCCSMRACRMPASQCCDKRINPEFLLANVMPSVLTRISSRQDRRRSA
Take B1: in test [2], the Kd was determined as 595 nM. In other words, the sub-micromolar range.

B2: AppA full length, GAL4 activation domain fusion (pGAD-T7-appA) (natural protein)
chain: B1 chain
In the case of B2, the β-galactosidase activity, percent of the SV40 T antigen + p53 control in test [3] is 40%.

The values above are taken from paper PMC3401432.
